# Results: PMC10675646 (Viruses, 2023)
# Where no end group is shown, it is not given here. The star is where a group is joined. 5FAM = O=C1OC2(c3ccc(O)cc3Oc3cc(O)ccc32)c2ccc(C(=O)*)cc21; Ahx = NCCCCCC(=O)O
# T1: 6xHis-SUMO-TRAF3 (residues 341-568) (human, UniProt Q13114 341-568)
# T1 construct: also called SUMO-TRAF-C of TRAF3; TRAF3 TRAF-C domain
# T1 sequence (looked up): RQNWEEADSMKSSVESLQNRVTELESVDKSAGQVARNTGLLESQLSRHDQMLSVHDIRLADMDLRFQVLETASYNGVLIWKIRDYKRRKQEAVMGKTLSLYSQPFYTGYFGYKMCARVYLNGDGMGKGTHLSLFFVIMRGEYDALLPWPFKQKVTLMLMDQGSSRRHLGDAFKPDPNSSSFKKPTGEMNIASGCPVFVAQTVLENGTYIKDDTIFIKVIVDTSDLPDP
# T2: 6xHis-SUMO-TRAF2 (residues 315-501) (human, UniProt Q12933 315-501)
# T2 construct: also called SUMO-TRAF-C of TRAF2; TRAF2 TRAF-C domain
# T2 sequence (looked up): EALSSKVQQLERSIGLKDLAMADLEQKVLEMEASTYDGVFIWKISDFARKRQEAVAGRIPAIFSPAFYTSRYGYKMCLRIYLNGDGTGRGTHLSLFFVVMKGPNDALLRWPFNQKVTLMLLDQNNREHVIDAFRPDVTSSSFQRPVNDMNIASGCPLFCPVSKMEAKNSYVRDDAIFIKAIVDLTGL
# Assays:
# [1] = biological target: T1, 6xHis-SUMO-TRAF3 (residues 341-568); assay: fluorescence polarisation; conditions: both partners purified
# [2] = biological target: T2, 6xHis-SUMO-TRAF2 (residues 315-501); assay: fluorescence polarisation; conditions: both partners purified
# crystal structure = biological target: the molecule itself; assay: crystal structure
# [3] = biological target: 16-aa ORF3a peptide (SARS-CoV-2 ORF3a residues 30-45) (SARS-CoV-2); assay: crystal structure; conditions: both partners purified
binder,measurement,setting,value
"{5FAM-Ahx}-PIQAS (also called 5-FAM-ORF3a peptide; fluorescently labeled PIQAS peptide) [5-FAM-Ahx-PIQAS peptide (5-aa ORF3a peptide, residues 36-40)]",Kd,[1],172 µM
same,Kd,[2],192 µM
"TRAF2 TRAF-C domain (human TRAF2 residues 315-501), tag cleaved, for crystallization (domain or fragment, UniProt Q12933 315-501, looked up) EALSSKVQQLERSIGLKDLAMADLEQKVLEMEASTYDGVFIWKISDFARKRQEAVAGRIPAIFSPAFYTSRYGYKMCLRIYLNGDGTGRGTHLSLFFVVMKGPNDALLRWPFNQKVTLMLLDQNNREHVIDAFRPDVTSSSFQRPVNDMNIASGCPLFCPVSKMEAKNSYVRDDAIFIKAIVDLTGL",stoichiometry N,crystal structure,3
same,binding result,[3],binds
